Data reported in the supplement of paper PMC9732359.
± gives the uncertainty stated by the source.

Test: protein stability index of a GFP-peptide fusion (yeast GPS) (PSI 1-4); higher = more stable; sorted into four equal gates, so the index is relative within each strain
Outline: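 The protein stability index combines read frequencies across sorting gates, each weighted by its gate number and then summed. To obtain those frequencies, a pooled yeast library of GFP fusions to tiled 17-residue yeast protein peptides, on a plasmid also expressing Cherry, was grown to mid-log phase in leucine-free medium. The cells were sorted into four equal gates by GFP/Cherry ratio before plasmid amplification by PCR and Illumina sequencing.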

| Sequence | protein stability index (doa10∆) | protein stability index (pdr5∆) | protein stability index (san1∆) | protein stability index (ubr1∆) |
| --- | --- | --- | --- | --- |
| KRMLLSLSEFARRRQPT [SNF2] | 2.26 ± 0.15 | 2.63 ± 0.13 | 1.77 ± 0.25 | 2.58 ± 0.092 |
| YKVLKNNGLPECQVIAA [YCG1] | 1.42 ± 0.09 | 2.1 ± 0.14 | 1.35 ± 0.16 | 1.95 ± 0.062 |
| SKVYYNLGEYESAVKYA [RPN2] | 2.62 ± 0.16 | 2.9 ± 0.093 | 2.8 ± 0.084 | 2.84 ± 0.056 |
| MLHKVLENKADPLVSLM [RPT6] | 2.28 ± 0.08 | 2.15 ± 0.063 | 2.71 ± 0.058 | 2.23 ± 0.066 |
| DNVSGLTRNAPLDSKDE [SNF2] | 2.95 ± 0.063 | 3.25 ± 0.051 | 3 ± 0.04 | 3.13 ± 0.043 |
| TSSAFFYQQVHKKDRLQ [SIR4] | 2.43 ± 0.048 | 2 ± 0.046 | 2.26 ± 0.053 | 2.44 ± 0.032 |
| ADLESFANNHFLNSNAV [COR1] | 2.63 ± 0.11 | 2.87 ± 0.074 | 2.99 ± 0.056 | 2.71 ± 0.082 |
| SNVAAIFKGIGGNFKDL [GAL11] | 2.78 ± 0.11 | 2.76 ± 0.079 | 2.58 ± 0.079 | 2.72 ± 0.1 |
| YPVLRKLYKKIAKFERS [YIL149C/MLP2] | 2.42 ± 0.079 | 1.99 ± 0.06 | 2.56 ± 0.071 | 2.88 ± 0.039 |
| NHKSKDNNNGDDDDEDD [SKP1] | 3.13 ± 0.075 | 3.14 ± 0.069 | 3.16 ± 0.05 | 3.14 ± 0.049 |
| FTTNKSKDVSRLLSALG [SRP21] | 3.03 ± 0.2 | 2.41 ± 0.28 |  | 2.8 ± 0.081 |
| GDIKPEFSPRLHNIWSN [YML103C/NUP188] | 3.22 ± 0.14 | 2.98 ± 0.091 | 3.32 ± 0.11 | 3.51 ± 0.11 |
| ILMGFTLKDNIVVMDCF [RRI1] |  | 1.97 ± 0.084 | 2.74 ± 0.12 | 1.39 ± 0.14 |
| EDFQVLRLGRGINPNTF [YDL088C/ASM4] | 3.29 ± 0.11 | 3.45 ± 0.19 | 3.06 ± 0.11 | 3.52 ± 0.064 |
| SETQTKDENNTANDQYS [YCG1] | 2.89 ± 0.069 | 3.15 ± 0.056 | 2.84 ± 0.041 | 3 ± 0.044 |
| VQIGAEIILDFLQDKVQ [CSI1] | 3.03 ± 0.085 | 3.07 ± 0.066 | 2.88 ± 0.061 | 3.06 ± 0.047 |
| NNKIITLVKGPKEPRLK [SKI6] | 2.91 ± 0.2 | 2.86 ± 0.16 |  | 3.14 ± 0.081 |
| TSSRQTVFLPMVGLVDP [RPT5] | 2.55 ± 0.038 | 2.62 ± 0.044 | 2.39 ± 0.044 | 2.16 ± 0.033 |
| PAANESEVANNGLIISW [RRP42] | 1.43 ± 0.15 | 1.49 ± 0.052 | 1.13 ± 0.28 | 1.4 ± 0.072 |
| KDWELEARFWHLVELLL [YDL116W/NUP84] | 2.26 ± 0.1 | 2.15 ± 0.086 | 1.92 ± 0.15 | 2.28 ± 0.062 |
| LNINNPNFLIMQGKITK [SMC2] | 3.39 ± 0.26 | 2.47 ± 0.19 | 2.87 ± 0.13 |  |
| DLQNLNLNTDKLKNNAS [YJL039C/NUP192] | 2.54 ± 0.11 | 2.65 ± 0.061 | 2.94 ± 0.086 | 2.5 ± 0.057 |
| MNAGGRNVTIQLENADT [RPN2] |  | 2.44 ± 0.18 | 1.62 ± 0.29 |  |
| DTVAELQAQLDYLNAEL [FAS2] | 2.81 ± 0.092 | 3.08 ± 0.081 | 3.12 ± 0.049 | 2.96 ± 0.09 |
| PIEVDEELLQLFLNNFV [IRR1] | 2.93 ± 0.063 | 2.86 ± 0.071 | 2.97 ± 0.054 | 3.18 ± 0.058 |
| IRGIVKQIVHDSGRGAP [RPL2A] | 1.76 ± 0.07 | 1.88 ± 0.065 | 2.79 ± 0.047 | 2.12 ± 0.07 |
| WQGKPVFIRHRTPHEIQ [RIP1] |  | 2.24 ± 0.28 |  | 1.68 ± 0.17 |

| Sequence | protein stability index (doa10∆) | protein stability index (pdr5∆) | protein stability index (san1∆) | protein stability index (ubr1∆) |
| --- | --- | --- | --- | --- |
| RMTIRTRGRSATIRETY [RRP43] | 2.96 ± 0.057 | 2.64 ± 0.061 | 2.67 ± 0.062 | 2.2 ± 0.049 |
| VEDFLERRLQTQVYKLG [RPS9A] | 1.28 ± 0.071 | 1.45 ± 0.095 | 1.97 ± 0.27 | 1.93 ± 0.18 |
| FSSKNEWRKSAIANTLL [PRP8] | 2.99 ± 0.056 | 2.79 ± 0.045 | 2.94 ± 0.053 | 2.72 ± 0.045 |
| SSEIKIYYNELQNKPDA [SIR4] | 2.91 ± 0.23 | 3.3 ± 0.14 | 2.46 ± 0.29 | 3.23 ± 0.087 |
| PAINYTKLKNAVQNESV [QCR2] | 1.9 ± 0.064 | 1.79 ± 0.059 | 2.2 ± 0.092 | 1.54 ± 0.048 |
| DGILRLYDALEPSDLRS [YGL100W/SEH1] | 3.02 ± 0.061 | 3.02 ± 0.051 | 2.77 ± 0.041 | 2.99 ± 0.042 |
| VNFTEIGGLIPQWKRHL [YCS4] | 3.46 ± 0.25 |  |  |  |
| GFANSLTFILGQLLSVK [YML031W/NDC1] | 1.13 ± 0.13 | 1.46 ± 0.18 | 1.2 ± 0.22 | 1.26 ± 0.12 |
| GFIETTELLNIYDSEDP [RPN3] | 2.71 ± 0.091 | 3.01 ± 0.095 | 2.85 ± 0.084 | 3.06 ± 0.075 |
| ALAGSEINWRHASFLCS [FAS1] | 1.77 ± 0.071 | 1.6 ± 0.057 | 1.43 ± 0.092 | 1.84 ± 0.049 |
| IELVVTEKEEAVAKAAE [RPL17A] | 3.41 ± 0.064 | 3.33 ± 0.05 | 3.27 ± 0.04 | 3.25 ± 0.047 |
| NVISSKDWELEARFWHL [YDL116W/NUP84] | 3.46 ± 0.096 | 3.32 ± 0.062 | 3.43 ± 0.066 | 3.25 ± 0.068 |
| FHESGSQYSTMVNIGLH [RGR1] | 3.19 ± 0.12 | 3.19 ± 0.11 | 2.7 ± 0.18 | 3.27 ± 0.14 |
| QDSMSKGTGEESNDRIN [YGR119C/NUP57] | 3.33 ± 0.098 | 3.22 ± 0.15 | 3.23 ± 0.09 | 3.38 ± 0.057 |
| ALQQQQQQQQNQQQQNQ [SWI1] | 2.77 ± 0.062 | 2.97 ± 0.068 | 2.75 ± 0.047 | 2.78 ± 0.079 |
| SQVEDFTRIFLPIYDSL [SIR3] | 2.67 ± 0.059 | 2.64 ± 0.045 | 2.49 ± 0.059 | 2.36 ± 0.036 |
| KQFLTKDLKFPLPHRVQ [RPL20A] | 2.67 ± 0.075 | 2.78 ± 0.057 | 2.86 ± 0.057 | 2.78 ± 0.046 |
| QSGSNSGNNSKKRKNKS [ROX3] | 2.96 ± 0.17 | 3.09 ± 0.097 | 3.02 ± 0.095 | 3.15 ± 0.066 |
| SGIVASPAVKKLLQLAG [RPS2] | 1.56 ± 0.12 | 1.66 ± 0.14 |  |  |
| QSDFCLSWCPSRFSPEK [YGL100W/SEH1] | 3.09 ± 0.11 | 3.02 ± 0.19 |  |  |
| KIYDAFPQTAMLRRHAA [DIS3] | 2.41 ± 0.086 | 2.71 ± 0.079 | 2.58 ± 0.12 | 2.4 ± 0.061 |
| PLSNIKALLFFNNEKET [RPN12] | 1.46 ± 0.056 | 1.4 ± 0.062 | 1.2 ± 0.088 | 1.13 ± 0.053 |
| RREVQIQLQEFLLSAMT [NSL1] | 1.42 ± 0.052 | 1.68 ± 0.11 | 1.47 ± 0.12 | 1.68 ± 0.063 |
| ESSDFGAIILTKMDGHA [SRP54] | 2.42 ± 0.1 | 2.74 ± 0.094 | 2.91 ± 0.11 | 2.8 ± 0.077 |
| QQQQQQQQQQQQQQQQQ [GAL11] | 2.57 ± 0.032 | 2.78 ± 0.028 | 2.661 ± 0.026 | 2.903 ± 0.023 |
| LGMLDDNKMDSVKEDVK [SMC4] | 2.12 ± 0.15 | 2.61 ± 0.13 | 2.09 ± 0.24 |  |
